The values that follow come from the supplement of paper PMC9112550, “Optimization of the antimicrobial peptide Bac7 by deep mutational scanning” (BMC Biology, 2022).

This series concerns Escherichia coli TOP10. Briefly: shrunken log2 fold change of peptide-encoding DNA abundance (4.5 h post-induction vs induction); higher = less antimicrobial activity (less host growth inhibition). As to conditions: time post-induction: 4.5 h; library: site-saturation at positions 5, 18, 19, 20.
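Note: peptides expressed intracellularly from a pBAD plasmid library in pooled LB shake-flask culture, induced with 0.3% L-arabinose, DNA abundance read by NGS, three biological replicates, DESeq2 with apeglm shrinkage.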

With RRIRQRPPRLPRPRPRPLLMPRP, the “shrunken log2 fold change” value came out at 0.181. For the sequence RRIRCRPPRLPRPRPRPLILPRP, the “shrunken log2 fold change” value is -0.373. With RRIRMRPPRLPRPRPRPMVPPRP, the “shrunken log2 fold change” value is -0.0114.

RRIRLRPPRLPRPRPRPFWPPRP: the “shrunken log2 fold change” value stood at 0.184. Regarding RRIRWRPPRLPRPRPRPLLEPRP, the “shrunken log2 fold change” value came to 0.216. With RRIRIRPPRLPRPRPRPYEAPRP the figure was -0.18; with RRIRERPPRLPRPRPRPSKRPRP, -0.00769.

Regarding RRIRSRPPRLPRPRPRPRCWPRP, the “shrunken log2 fold change” value was found to be 0.329.

With RRIRSRPPRLPRPRPRPNRQPRP, the “shrunken log2 fold change” value was -0.403. Regarding RRIRWRPPRLPRPRPRPMYAPRP, the “shrunken log2 fold change” value amounted to 0.325. With RRIRWRPPRLPRPRPRPGQVPRP, the “shrunken log2 fold change” value is -0.0635. With RRIRVRPPRLPRPRPRPCMDPRP, the “shrunken log2 fold change” value was -0.836. For RRIRYRPPRLPRPRPRPATYPRP, the “shrunken log2 fold change” value was -0.113. For the sequence RRIRARPPRLPRPRPRPIPLPRP, the “shrunken log2 fold change” value stood at 0.0456.

With RRIRARPPRLPRPRPRPWFTPRP, the “shrunken log2 fold change” value was -0.316. Consider RRIRCRPPRLPRPRPRPFAWPRP, for which the “shrunken log2 fold change” value was 0.0983. With RRIRGRPPRLPRPRPRPSPPPRP the figure was 0.569; with RRIRIRPPRLPRPRPRPKGRPRP, 0.182; with RRIRWRPPRLPRPRPRPPMLPRP, 0.0923. The value for RRIRMRPPRLPRPRPRPKDFPRP was -0.025; that for RRIRTRPPRLPRPRPRPFMSPRP was 0.0219; that for RRIRQRPPRLPRPRPRPRAAPRP was 0.506.

On to RRIRFRPPRLPRPRPRPRMHPRP, for which the “shrunken log2 fold change” value was -0.0776. Take RRIRARPPRLPRPRPRPYLTPRP: the “shrunken log2 fold change” value is -0.655. For RRIRARPPRLPRPRPRPCKCPRP, the “shrunken log2 fold change” value is -0.0835.

Regarding RRIRNRPPRLPRPRPRPLDNPRP, the “shrunken log2 fold change” value is -0.263. Regarding RRIRPRPPRLPRPRPRPEWHPRP, the “shrunken log2 fold change” value stood at 1.23. Take RRIRIRPPRLPRPRPRPVDCPRP: the “shrunken log2 fold change” value came out at 0.0257.

Take RRIRERPPRLPRPRPRPPHEPRP: the “shrunken log2 fold change” value is 0.731. Turning to RRIRARPPRLPRPRPRPITNPRP, the “shrunken log2 fold change” value was -0.54. On to RRIRLRPPRLPRPRPRPKHEPRP, for which the “shrunken log2 fold change” value amounted to 0.053.

RRIRKRPPRLPRPRPRPSTKPRP: the “shrunken log2 fold change” value was found to be 0.143. Turning to RRIRERPPRLPRPRPRPVWDPRP, the “shrunken log2 fold change” value came out at 0.00068. Consider RRIRTRPPRLPRPRPRPVCIPRP, for which the “shrunken log2 fold change” value is -0.195.

On to RRIRPRPPRLPRPRPRPYFVPRP, for which the “shrunken log2 fold change” value was -0.488. With RRIRWRPPRLPRPRPRPKKRPRP, the “shrunken log2 fold change” value came out at 0.426. As to RRIRNRPPRLPRPRPRPAIFPRP, the “shrunken log2 fold change” value is -0.424. As to RRIRVRPPRLPRPRPRPAAWPRP, the “shrunken log2 fold change” value was 0.136. The value for RRIRFRPPRLPRPRPRPGCSPRP was -0.0796. For RRIRIRPPRLPRPRPRPAILPRP, the “shrunken log2 fold change” value amounted to 0.089. For the sequence RRIRHRPPRLPRPRPRPFWFPRP, the “shrunken log2 fold change” value is -0.382. In the case of RRIRNRPPRLPRPRPRPQKAPRP, the “shrunken log2 fold change” value was -0.0017.

As to RRIRHRPPRLPRPRPRPLEMPRP, the “shrunken log2 fold change” value is -0.236. The value for RRIRKRPPRLPRPRPRPCKMPRP was 0.093; that for RRIRFRPPRLPRPRPRPVTWPRP was -0.271. Turning to RRIRGRPPRLPRPRPRPCCYPRP, the “shrunken log2 fold change” value worked out at 0.786. In the case of RRIRARPPRLPRPRPRPEVSPRP, the “shrunken log2 fold change” value is 0.431. The value for RRIRVRPPRLPRPRPRPNYHPRP was -0.489; that for RRIRVRPPRLPRPRPRPRVWPRP was 0.736. As for RRIRDRPPRLPRPRPRPTNHPRP, the “shrunken log2 fold change” value is -0.247. For RRIRGRPPRLPRPRPRPKIEPRP, the “shrunken log2 fold change” value turned out to be 0.566. RRIRMRPPRLPRPRPRPCFVPRP: the “shrunken log2 fold change” value was -0.103.

Consider RRIRNRPPRLPRPRPRPIIIPRP, for which the “shrunken log2 fold change” value was -0.663. For the sequence RRIRIRPPRLPRPRPRPISCPRP, the “shrunken log2 fold change” value is -0.0154.

Consider RRIRTRPPRLPRPRPRPNWAPRP, for which the “shrunken log2 fold change” value was -0.243. Take RRIRYRPPRLPRPRPRPTTNPRP: the “shrunken log2 fold change” value was -0.837.

With RRIRIRPPRLPRPRPRPPYFPRP, the “shrunken log2 fold change” value is -0.25.

With RRIRQRPPRLPRPRPRPAWQPRP, the “shrunken log2 fold change” value worked out at 0.147. The value for RRIRWRPPRLPRPRPRPFNEPRP was -0.69; that for RRIRVRPPRLPRPRPRPWQWPRP was -0.0592. On to RRIRHRPPRLPRPRPRPAVEPRP, for which the “shrunken log2 fold change” value is -0.0419. Consider RRIRCRPPRLPRPRPRPNYCPRP, for which the “shrunken log2 fold change” value is -0.3. As to RRIRARPPRLPRPRPRPAYAPRP, the “shrunken log2 fold change” value worked out at 0.476. Take RRIRKRPPRLPRPRPRPLPLPRP: the “shrunken log2 fold change” value was 0.387.

For RRIRPRPPRLPRPRPRPFKVPRP, the “shrunken log2 fold change” value is -0.0681.

For the sequence RRIRLRPPRLPRPRPRPGQQPRP, the “shrunken log2 fold change” value was -0.0555. Turning to RRIRNRPPRLPRPRPRPQTTPRP, the “shrunken log2 fold change” value was -0.149.

With RRIRQRPPRLPRPRPRPNQDPRP, the “shrunken log2 fold change” value was -0.0715.

For the sequence RRIRWRPPRLPRPRPRPCQEPRP, the “shrunken log2 fold change” value is -0.15. In the case of RRIRDRPPRLPRPRPRPKEQPRP, the “shrunken log2 fold change” value worked out at 0.0816. RRIRWRPPRLPRPRPRPAWKPRP: the “shrunken log2 fold change” value came to 0.143. The value for RRIRGRPPRLPRPRPRPIHYPRP was -0.242; that for RRIRWRPPRLPRPRPRPDAIPRP was -0.0199; that for RRIRPRPPRLPRPRPRPGLKPRP was 0.211.

RRIRGRPPRLPRPRPRPTKLPRP: the “shrunken log2 fold change” value was 0.38. In the case of RRIRTRPPRLPRPRPRPYFYPRP, the “shrunken log2 fold change” value was -0.842.

With RRIRVRPPRLPRPRPRPAIIPRP, the “shrunken log2 fold change” value was -0.425. Regarding RRIRQRPPRLPRPRPRPMQTPRP, the “shrunken log2 fold change” value is -0.0319.

Turning to RRIRNRPPRLPRPRPRPPVYPRP, the “shrunken log2 fold change” value was determined as 0.111. As to RRIRFRPPRLPRPRPRPYAGPRP, the “shrunken log2 fold change” value was -0.208.

Turning to RRIRWRPPRLPRPRPRPGKKPRP, the “shrunken log2 fold change” value was determined as 0.375. RRIRIRPPRLPRPRPRPDPCPRP: the “shrunken log2 fold change” value was -0.224. The value for RRIRYRPPRLPRPRPRPIATPRP was 0.0782; that for RRIRIRPPRLPRPRPRPPEMPRP was -0.291.

With RRIRVRPPRLPRPRPRPMCRPRP, the “shrunken log2 fold change” value is -0.0485. With RRIRFRPPRLPRPRPRPDNRPRP, the “shrunken log2 fold change” value was -0.0149. As for RRIRLRPPRLPRPRPRPLSKPRP, the “shrunken log2 fold change” value amounted to 0.0272. Turning to RRIRNRPPRLPRPRPRPPSIPRP, the “shrunken log2 fold change” value was -0.0153. Turning to RRIRPRPPRLPRPRPRPFVDPRP, the “shrunken log2 fold change” value was -0.319. As to RRIRGRPPRLPRPRPRPCNRPRP, the “shrunken log2 fold change” value stood at 0.212. For the sequence RRIRMRPPRLPRPRPRPIALPRP, the “shrunken log2 fold change” value came to 0.0271. On to RRIRQRPPRLPRPRPRPGVWPRP, for which the “shrunken log2 fold change” value was 0.611. Turning to RRIRHRPPRLPRPRPRPFMWPRP, the “shrunken log2 fold change” value was -0.137. For the sequence RRIRHRPPRLPRPRPRPGCRPRP, the “shrunken log2 fold change” value worked out at 0.704.

As to RRIRHRPPRLPRPRPRPNKVPRP, the “shrunken log2 fold change” value was -0.238. With RRIRRRPPRLPRPRPRPTGCPRP the figure was 0.0105. On to RRIRQRPPRLPRPRPRPCIQPRP, for which the “shrunken log2 fold change” value is -0.118. The value for RRIRRRPPRLPRPRPRPTRFPRP was 1.08; that for RRIRIRPPRLPRPRPRPSRLPRP was -0.0995; that for RRIRDRPPRLPRPRPRPAGEPRP was 0.0114. For RRIRPRPPRLPRPRPRPWADPRP, the “shrunken log2 fold change” value worked out at 0.0868. In the case of RRIRWRPPRLPRPRPRPMHMPRP, the “shrunken log2 fold change” value was -0.287. In the case of RRIRSRPPRLPRPRPRPEETPRP, the “shrunken log2 fold change” value is -0.00674. In the case of RRIRMRPPRLPRPRPRPTGGPRP, the “shrunken log2 fold change” value was 0.454. With RRIRYRPPRLPRPRPRPEKAPRP the figure was 0.00447. Regarding RRIRRRPPRLPRPRPRPNAWPRP, the “shrunken log2 fold change” value worked out at 0.597. Regarding RRIRNRPPRLPRPRPRPHCAPRP, the “shrunken log2 fold change” value is 0.0341. Regarding RRIRSRPPRLPRPRPRPMYDPRP, the “shrunken log2 fold change” value is 0.0313. As for RRIRWRPPRLPRPRPRPMVYPRP, the “shrunken log2 fold change” value stood at 0.0222. Take RRIRERPPRLPRPRPRPMWTPRP: the “shrunken log2 fold change” value is -0.306. With RRIRPRPPRLPRPRPRPMGGPRP the figure was 0.113. For the sequence RRIRCRPPRLPRPRPRPIIYPRP, the “shrunken log2 fold change” value was -0.739. As for RRIRMRPPRLPRPRPRPSTQPRP, the “shrunken log2 fold change” value was 0.148. On to RRIRARPPRLPRPRPRPDVYPRP, for which the “shrunken log2 fold change” value was 0.152. Regarding RRIRFRPPRLPRPRPRPYRPPRP, the “shrunken log2 fold change” value was -1.76.

Take RRIRHRPPRLPRPRPRPITLPRP: the “shrunken log2 fold change” value came out at 0.0184. For RRIRCRPPRLPRPRPRPITHPRP, the “shrunken log2 fold change” value was -0.158. With RRIRNRPPRLPRPRPRPHVDPRP, the “shrunken log2 fold change” value was found to be 0.00884.

With RRIRFRPPRLPRPRPRPPATPRP, the “shrunken log2 fold change” value stood at 0.562. As to RRIRSRPPRLPRPRPRPPLAPRP, the “shrunken log2 fold change” value was determined as 0.812. In the case of RRIRSRPPRLPRPRPRPERHPRP, the “shrunken log2 fold change” value amounted to 0.0386. For the sequence RRIRRRPPRLPRPRPRPFFSPRP, the “shrunken log2 fold change” value was found to be 0.043.

Take RRIRGRPPRLPRPRPRPECKPRP: the “shrunken log2 fold change” value came to 0.841. Consider RRIRYRPPRLPRPRPRPTRRPRP, for which the “shrunken log2 fold change” value amounted to 0.358. Turning to RRIRKRPPRLPRPRPRPINIPRP, the “shrunken log2 fold change” value is -0.0728.
